In the supplement of paper PMC12764529:
± gives the half width of the 95% confidence interval.

What was measured:
[1] = folding stability dG unfold from trypsin proteolysis; higher = more stable
Outline: (§1)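 Bayesian fitting of sequencing counts gave K50 for each design. Unfolding free energy followed by setting this against a sequence-predicted unfolded-state K50 and a shared folded-state K50, either per protease or with trypsin and chymotrypsin combined. The designs, under 80 residues and lacking cysteine, were digested in a PA-tagged cDNA display format at 11 threefold-diluted protease concentrations and without protease, and only those with AlphaFold2 dimer inter-PAE above 15 were kept.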

[2] = folding stability dG unfold from chymotrypsin proteolysis; higher = more stable
Outline: as §1

[3] = folding stability dG unfold (combined trypsin and chymotrypsin); higher = more stable
Outline: as §1

Sequence | folding stability dG unfold [1] | folding stability dG unfold [2] | folding stability dG unfold [3]
SAMKTIEIEIELDELKNLTPEELEEKAKELAEELAKKLAEEKGLEVVSVKVEVVEKDGKLVVKVTVEVKSAG [r14_310_TrROS_Hall] | 3.59 ± 0.24 kcal/mol | 2.83 ± 0.26 kcal/mol | 3.66 ± 0.71 kcal/mol
SAGGWRYILRQIREAAKNGEEVTINFPPGMNPSFLLSWIRKENGAEVKPITVKPNPNGYGTINIKVKSAGGS [r16_318_TrROS] | 1.39 ± 0.054 kcal/mol | 2.02 ± 0.057 kcal/mol | 1.8 ± 0.073 kcal/mol
SAGGNIQIHYNPDWGVIRITYMFPSPTEAEDFIKKLLPPGYKIEPIEVERNPDGYYQVSIEIRLPKGASAGG [r13_338_TrROS] | 2.82 ± 0.12 kcal/mol | 3.924 ± 0.036 kcal/mol | 3.64 ± 0.063 kcal/mol
KETVTLEFELEDGSKVRVEVDLETKEVKVEVEKPPAPPPPPVIVLPPGLTEEERERLIKELEKKGIKVVVLS [r1_242_TrROS_Hall] | 2.25 ± 0.13 kcal/mol | 2.21 ± 0.09 kcal/mol | 2.28 ± 0.13 kcal/mol
SAGGGSLEKIREAGKKGYLVRIELETGERRVIPIEDLIRDPRFGPDVPLAELRVRRIELLPPDDGLPLSAGG [r13_587_TrMRF] | 1.27 ± 0.036 kcal/mol | 0.889 ± 0.069 kcal/mol | 1.13 ± 0.062 kcal/mol
SAGGSAGGSAGMKTYTAEEIKNLPPGAKVIEVDGKLKIEIDGKIYTIEPGETVEIEPLEESAGGSAGGSAGG [r17_91_TrROS_Hall] | 1.57 ± 0.078 kcal/mol | 2.04 ± 0.043 kcal/mol | 1.89 ± 0.11 kcal/mol
SAGGSAMKVIRIRPDDPRVKELLKKLEDAGYEVRYDEETGELYVTLPDGKVLKFKSLEELKKAGFESAGGSA [r15_94_TrROS_Hall] | 1.63 ± 0.029 kcal/mol | 2.19 ± 0.1 kcal/mol | 1.93 ± 0.088 kcal/mol
SAALAELLLNEGYEVRIEVEVREVRPRTLPGGGTTVELDITVRIELRPPPIPPPPLDPRLLRDEDGHLRSAG [r14_569_TrMRF] | 2.35 ± 0.037 kcal/mol | 1.95 ± 0.071 kcal/mol | 2.15 ± 0.1 kcal/mol
SAGGSASSYGIEIEFSEDPNSKTKKITITVTRPDGTVETVTITNPDITDEEAKKIGEELANEVANSSAGGSA [r15_526_JUSTAS] | 2.19 ± 0.055 kcal/mol | 1.93 ± 0.02 kcal/mol | 2.06 ± 0.059 kcal/mol
SAGMIEILELPPNKAIVKIYDPKTGKFEIIEIDFGGKDGKPLSLEELIEKIKKLAKELYPDLEINVTPLSAG [r5_293_TrMRF] | 3.28 ± 0.26 kcal/mol | 1.98 ± 0.063 kcal/mol | 2.61 ± 0.17 kcal/mol
SAGGSAKLIVADVSPLPDGGFAVNVTFVGENGEPVAVKPFYAGSPEELLAALKKFAEENGYEVVVASAGGSA [r15_242_TrMRF] | 3.6 ± 0.12 kcal/mol | 4.57 ± 0.06 kcal/mol | 4.43 ± 0.11 kcal/mol
SAGKKVKKITLTIKNKETGEYYKAEVIENENGEKYIKIINKKTGKIYIFKIKDGKIEPVKEISLKDIKPSAG [r5_619_TrROS_Hall] | 1.85 ± 0.067 kcal/mol | 3.11 ± 0.053 kcal/mol | 2.83 ± 0.2 kcal/mol
SAGGSAGGSKTKTIEIEVDGKKVRITVNEDGSVTIEVYYPGKPVKTIEIPGMSIEEILKALLESAGGSAGGS [r20_8_TrROS_Hall] | 3.08 ± 0.071 kcal/mol | 2.27 ± 0.071 kcal/mol | 2.73 ± 0.098 kcal/mol
SAGLRVVAVARTPDGSLVVVYELPDRLVVLRYTPTAITSVAVFPVPPVPPPPAVPRYYDPVTGRWVDGSAGG [r19_254_TrMRF] | 1.71 ± 0.029 kcal/mol | 3.641 ± 0.026 kcal/mol | 3.02 ± 0.061 kcal/mol
SAGGSAGGRVVLSAEEIEKLKPGDEIELLVRDKETGEWRRVKARVVRIERVGDRVYVEIEIEPESAGGSAGG [r6_753_TrROS_Hall] | 4.53 ± 0.25 kcal/mol | 4.19 ± 0.057 kcal/mol | 4.29 ± 0.12 kcal/mol
SAGGSAGGSAPPLDRVFVEVRVEPGEDAGVVVTHPDGRVLTAPADADVVFEFHPDVPVLVADASAGGSAGGS [r12_553_TrMRF] | -1.27 ± 0.49 kcal/mol | 0.129 ± 0.12 kcal/mol | -0.201 ± 0.18 kcal/mol
SAGGVLLEFPDGTTVEITVTTSTSTFKDPTTDKTVTKSSTTITVTRKTPDPVVTPVPASEAQRIFDSTSAGG [r13_809_JUSTAS] | 2.13 ± 0.079 kcal/mol | 2.96 ± 0.2 kcal/mol | 2.47 ± 0.21 kcal/mol
SAGGSAGGSAGKLRVRIPPRLRERLRKRKRVRLRLRVEEREVRDEDGNLRRVRRLEIELESAGGSAGGSAGG [r11_113_TrROS_Hall] | 0.819 ± 0.15 kcal/mol | 2.03 ± 0.19 kcal/mol | 1.42 ± 0.17 kcal/mol
SAGGGKLFVTEDAVLLELLYPETGEPYLAVFNPPTGLVTVYFPNRLKALFKIDPDGNLTLVKIEPANSAGGS [r16_127_TrMRF] | 2.06 ± 0.093 kcal/mol | 2.979 ± 0.028 kcal/mol | 2.69 ± 0.078 kcal/mol
SAEDEYEVELTFEAPLNEPEVIEKIKKELEELGFEIEEVKVEVLEDPKTVKVTLKARVKGIPPEKLKALSAG [r14_956_TrMRF] | 1.78 ± 0.033 kcal/mol | 1.92 ± 0.099 kcal/mol | 1.82 ± 0.086 kcal/mol
SAGDNNKKPKYVYIPITINVPLPPGQTHEEAVDEVRLIMEELFPPGFKISEVKVHPEYNTVTVWIQIRSAGG [r19_81_TrROS] | 2.11 ± 0.089 kcal/mol | 2.16 ± 0.044 kcal/mol | 2.22 ± 0.18 kcal/mol

Sequence | folding stability dG unfold [1] | folding stability dG unfold [2] | folding stability dG unfold [3]
SAGGSAPPVKVDVEELDDDLVKVTVTFPGGPFTLKLYKDGKLLKEETVPEDETATFVLPKDALIVGSAGGSA [r15_581_TrMRF] | 0.847 ± 0.051 kcal/mol | 1.59 ± 0.064 kcal/mol | 1.36 ± 0.059 kcal/mol
SAGGSAGGLKEALKLAEELGAKPHVVKTKGNSEIVFLELKDGRKIRLLVENGKIKEIIPIPETPSAGGSAGG [r6_548_TrMRF] | 1.86 ± 0.065 kcal/mol | 2.39 ± 0.065 kcal/mol | 2.08 ± 0.17 kcal/mol
SAGGSAGGSEITILIKDENGYLIKVKVELKLKKNKDGKKTLELKIEITEIYKVPSKEEAKKLLSAGGSAGGS [r12_915_TrROS_Hall] | 0.755 ± 0.1 kcal/mol | 2.08 ± 0.11 kcal/mol | 1.78 ± 0.22 kcal/mol
SAGKKVRIWIVFDGDPEQAKYLAEEIAKELRQKDGHKNVDIEVIPPGQDMHQMMEWAEENNVDIVIMVSAGG [r19_89_TrROS] | 2.68 ± 0.15 kcal/mol | 3.85 ± 0.19 kcal/mol | 3.59 ± 0.13 kcal/mol
SAGGSAMITVDPGEKTVTVEIDLPVYKSYTYPGGETKAYPLELPEEEAKKVADEIAEAFKKKLEGESAGGSA [r15_365_JUSTAS] | -0.499 ± 0.25 kcal/mol | 0.49 ± 0.25 kcal/mol | 0.134 ± 0.24 kcal/mol
SAGGSAGGSMSPEEARALAEALAEALGEPDVEVLEVVQTENPAADSTTVTVTIRLPDGSVRVLSAGGSAGGS [r12_508_JUSTAS] | 1.63 ± 0.079 kcal/mol | 1.481 ± 0.014 kcal/mol | 1.63 ± 0.06 kcal/mol
SAGGMYVLPIDLDPASLTEEERLAVARELAEELYAAGVPGDVMLIIPREEKPLTITIDFATGEVTVVDSAGG [r19_204_JUSTAS] | 1.32 ± 0.045 kcal/mol | 1.22 ± 0.055 kcal/mol | 1.31 ± 0.048 kcal/mol
SAGGSAKKVIVIEVKPGEKITITINGKKVEIVEVKPEGETFLIRNKDTGEIYKITVVDGKVVIEKLSAGGSA [r15_235_TrROS_Hall] | 2.43 ± 0.09 kcal/mol | 4.28 ± 0.076 kcal/mol | 3.74 ± 0.22 kcal/mol
SAGGAITLEYEVETEEEAEKAIEELEKELKEKFGGPVKIEKATIEKTEDPSVPREKYRLKLTIEINKSAGGS [r8_171_JUSTAS] | 0.198 ± 0.13 kcal/mol | 1.08 ± 0.11 kcal/mol | 0.858 ± 0.28 kcal/mol
SAGGSAGGSAGGMITVEVEVPGDEAEAEARREAIAEELAAEGHEDVPITVTFVSPEEAASAGGSAGGSAGGS [r10_1099_JUSTAS] | 1.28 ± 0.11 kcal/mol | 0.388 ± 0.047 kcal/mol | 0.64 ± 0.36 kcal/mol
SAGGSAGGSAPTSSVVTFPYESPEEARERARELAEEERARRGVRFRVEYDPATGTVTLTAVESAGGSAGGSA [r18_368_JUSTAS] | 0.673 ± 0.064 kcal/mol | 0.926 ± 0.12 kcal/mol | 0.859 ± 0.13 kcal/mol
SAGGSAGGFIEYDPKTGTITVTFPSSVSPEDVRAAIEAAGFPATPVAYSYDPSPPVRTVTFKVASAGGSAGG [r6_396_JUSTAS] | 1.14 ± 0.02 kcal/mol | 0.832 ± 0.11 kcal/mol | 1.06 ± 0.092 kcal/mol
SAGGSAGGSAGSVTITRDYPTPDGTRTTVTITFPSLERSPSVKYKLVSVSPDGNYVLSPESAGGSAGGSAGG [r11_733_JUSTAS] | 2.11 ± 0.18 kcal/mol | 1.61 ± 0.17 kcal/mol | 1.91 ± 0.28 kcal/mol
SAGGNNAWVQITIPITIKPVYEPEYDPDNGKPKWEPREMEIPITIWAPFDDPEDAERAADDILKSLGISAGG [r13_35_TrROS] | 0.837 ± 0.037 kcal/mol | 0.769 ± 0.12 kcal/mol | 0.756 ± 0.1 kcal/mol
SAGGSAGGSAVPFVLPDGYVLEVEPDPETGLYRIRVTSPDGRTYEFTAPPDVPLADIPVVIDDSAGGSAGGS [r12_261_TrMRF] | 2.89 ± 0.059 kcal/mol | 2.96 ± 0.034 kcal/mol | 2.95 ± 0.053 kcal/mol
SAGGSAGGRFTVQFRVPGTLEEAREKAEEIAENLPPNFKDVEVDIEPHPKNGWIRVEVQIKMKKSAGGSAGG [r6_164_TrROS] | 0.991 ± 0.16 kcal/mol | 1.07 ± 0.16 kcal/mol | 1.01 ± 0.31 kcal/mol
SAGGMLTLEEIKKAKPGEKLEIEVDGKIYLVEIKKNENGELTLTVKKVDKETGEIVEEKTISLEELLSAGGS [r16_763_TrROS_Hall] | 2.91 ± 0.11 kcal/mol | 3.78 ± 0.077 kcal/mol | 3.53 ± 0.07 kcal/mol
SAGGSAGGDAKTFEVEGMTVFVDPETGLAVAEFPDGYLALGRIEVFGPGVAKVDLEIFPLPPGLSAGGSAGG [r6_670_TrMRF] | 1.74 ± 0.11 kcal/mol | 1.53 ± 0.071 kcal/mol | 1.61 ± 0.13 kcal/mol
SAGGSGSSMSVSVSVTTSPVSVDPNKPVPIEVATTTTPVSSYDPVTGTSSTTTTTTTVPLGNPEAASAGGSA [r2_489_JUSTAS] | 2.62 ± 0.081 kcal/mol | 1.42 ± 0.044 kcal/mol | 1.98 ± 0.051 kcal/mol
SAGGSAGGSAGKVIIIKVPKKDMTPEEVEKLAKELKEKFPDAKITVIEVKKDGYIIIKIDSAGGSAGGSAGG [r11_365_TrROS_Hall] | 1.91 ± 0.063 kcal/mol | 2.73 ± 0.079 kcal/mol | 2.47 ± 0.11 kcal/mol
SAGGSAGGKLVLKIKIYNKKTKKVYEFEIEADSLEELKEALKKLGLPKDVKIVSVELRPLDEEPSAGGSAGG [r6_23_TrROS_Hall] | 3.65 ± 0.1 kcal/mol | 4.96 ± 0.075 kcal/mol | 4.79 ± 0.092 kcal/mol
